In the RNAGym collection of RNA variant scans (doi:10.1073/pnas.2313332121):

B1: TPR t1 (parent)
chain: GACCAAUCUGCCCUCAGAGCUCGAGAACAUCUUCGGAUGCAGAGGAGGCAGGCUUCGGUGGCGCGAUAGCGCCAACGUCCUCAACCUCCAAUGCAUCCCACCACAUGAUGAUGCCUGAAGAGCCUUGGUUUUUUG

Variants of: B1
Experiment: polymerase ribozyme fitness, log enrichment relative to wild type (log ratio); higher = more active; in vitro selection for triplet polymerase activity
In short: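 Libraries of mutants in each subunit of a heterodimeric triplet polymerase ribozyme were generated by PCR and transcribed. In triplicate, each went through one in vitro selection round: annealing with biotinylated primer, partner subunit and triplets; frozen incubation at −7 °C; gel excision of extended constructs; streptavidin-bead capture; RT-PCR. Fitness, taken from Illumina sequencing of input and output libraries, is the logarithm of a genotype's enrichment over wild-type enrichment, averaged across replicates with inverse-variance weights. The logarithm is base 2, and genotypes needed ≥10 input reads and ≥1 read per output to be kept.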

Variant	polymerase ribozyme fitness (log ratio)
C3U C82G	-0.798
C20A G45U C56U	-3.25
C28U G57U	-1.3
G17U C31U C64G G93U C123A U130A	-5.64
A18U C85G	-3.16
G10U C13G C73U G122U	-0.626
G45A C56G U78A G122A U129G	-1.63
G45U G135U	-2.03
C28A C40G	-6.86
A37C G48C U54C G63A A74U G113A	-5.41
C15A G57U C64G	-6.59
A5G A43C G44C G52C C73U U109A C114U C115A	-6.36
G60C G77U	-0.19
A5U C88G G117A G120C	-4.11
C64G A111G	-5.39
C20A G47U C72A A111C	-3.96
A103U A119U	-5.64
C56A C99A	-6.08
G61U A66C	-3.18
C3G C82A	-2.49
C11U G60A U131G	-2.06
A18U C88U	-2.25
A2U C56A U106A C115G	-4.51
A26U G48U	-3.85

Variant	polymerase ribozyme fitness (log ratio)
G19A A29G	-3.47
G19C	-1.91
G61A A111U G128C U133G	-4.57
G69C C73A	-1.18
C12A C22G	-2.6
C8A G39U C64U A111U U116G U129G	-5.99
U7A U55A U116C	-0.198
C85A C102U A121U C124U	-1.07
G47C G113U	-4.11
C4U C56A U130C	-0.451
G69A	-2.44
G42C A91G U112A	-0.613
A41U C64U C73U U106C	-1.79
A29U U78C	-1.79
C13U G117A	-1.27
C8A G63C U78C U81A C101A U109G	-5.76
U7A G48U C94A C97U	-2.33
U59A C89A	-1.85
G113C U125G	-2.58
G17U G48A A50U G60A	-3.1
G45A C123G	0.984
C53U A105C G120C G122A U129A	-5.42
C34U U112A	-2.99
G48C U78A	-0.274

Variant	polymerase ribozyme fitness (log ratio)
C40G G57C	-1.56
C8U C72A C98U U116A G128C	-6.24
A6U A27U A121G U130A	-0.823
C79A G107A G117U	-6.98
G10A C15U	-2.8
C79U G113U U116A	-5.49
C11U C22G C40U G69A	-5.5
C72A G93C C102G	-6.8
C11G C70G G77U A103C A121C U132A	-5.85
A50G G113U U131A	-4.11
C8A C13U U38A C97A	-6.04
C8G C15G	-1.24
G47C C89U C124G	-0.507
G48U C49U G71C C86A	-2.67
G45U C72A C88A G93A G107U A111C	-5.12
G77A C89A C94U G122A	-4.01
A37G G47C C64U U87A G120C C124G	-3.3
U96C C123G G127C	-0.432
C15A G52A G117U	0.0979
C15A C20A A118U	-3.93
G48U C56G C64U C101A	-2.95
C13U G44U C56A	-1.59
U54G G71A G120C	-6.71
G39U G51A A118G	-4.52

Variant	polymerase ribozyme fitness (log ratio)
C8G U38C A50U C115A	0.783
A27U A84U	-3.79
U87A C88U	-1.46
G51U C56A G69U U106C	-1.79
A27U G113U	-4.99
A2G C11G G61A U129A G135U	-2.91
C13A C20U G42U G44A C102U G127C	-6.04
C8G G60A C104U	-0.296
C8G G63A C73U U78C C123G	0.795
C31G G44U G52U C62U C85U C115U G117A	-7.35
C15U A66G G71A C98A G113U	-7.64
G69A G77C C94U	-4.05
C76U U112A U116G	-2.03
A43U G69U A91C	0.416
U7G A46U G63C C102A C104A A111U G128C	-7.59
G69U C70G C88U C115A	-0.11
C12G A108G	-1.2
G48A C73U A119G	0.718
G45A A103U	-7.16
A5U G71C U106G	-3.95
G17A A37U U54C C70U	-4.08
C11G G36A C73U	-0.782
A6U C73A	0.0629
G71U C86A	-2.02

Variant	polymerase ribozyme fitness (log ratio)
C49U C72A C79G C104A	-4.65
C97U C124U	0.498
U33A C56G G69U	-2.45
G60C U106G	-3.41
A46U G61A	0.101
C22U U92G C94A C104G U109G G122A C123A U125A	-7.36
C20U A41C	-3.04
U106C G117A	-3.23
C20G G47A G57U	-5.83
C34U G44U	-4.41
G69U A91C C114A C124U U126C	-2.19
A5C C11A A50G C53A C99A C102G C104A C115U	-7.15
C11G C15A	-0.327
U7C A100U	-0.808
C22A A83G U96A C114A	-5.87
C53A C56G G71C G127C	-1.96
U14A C56A C62U	-2.93
G57C C88U A95U	-1.98
C22A C88U	-4.66
U54C C94A G113U	-3.83
C13U C49U	-0.549
A46C C62U C86U C97U A111U C124U	-5.27
C34U G36U G61A C97G A119G	-3.91
C56U G57A C79G	-1.48

Variant	polymerase ribozyme fitness (log ratio)
C85U U109A	-6.03
U106A U109G A111U	-4.71
G63U C97U C98U G113A A118G U134G	-3.87
A83U C98U U130C	-0.673
C11G A29C U55G A84G G113A	-4.47
G35U C82U C115A	-6.43
U9C C40U U112G	0.239
U33G G60U C85G	-7.61
G48A G60U	-0.531
C20U A37U C72G C101A	-2.76
A2C C49G G63C A74U A75U C124A	-3.35
C8U G51A C56A G120U	-3.67
G42C G57A A105U	-5.05
C22U A37G G61C C64A U112C U126G G128A	-6.8
C115A U129A U131C	-0.649
A105G G117A	-4.69
C11A U32C A37C	-1.07
C11G A27G	-1.52
G60U C89G U96G U129A	-3.9
G57C C99U A118G	-4.32
C28G A83G	-3.41
U14A G63A U125A	-2.94
G10A C11A A18C G42C G44A G60A C101A	-4.31
G19C G61A U81G A84G A91G A111G	-4.6

Variant	polymerase ribozyme fitness (log ratio)
U9A C56A	0.00188
A27U C62A C101U A119U	-5.17
G44A G71C	-2.21
C20A C70U	-3.19
A6U C53U U54G G93U U106A U129A	-2.14
C102U C124U	-0.914
C3U G60A G77U G117C	-3.58
C28U U112C U131A	-0.425
C13G G113A	-2.45
A46C C53A G77U	-0.585
A37C G45A A83C A100U G113C	-4.29
G60A C88G G113A	-2.28
A2C G71A C82A	-2.88
A41U U55G A91U C101G	-4.09
G52U G61A C94U	-0.267
C13U A84U G113U U116A A119G G135U	-6.59
A74U A111C	-1.62
C8G G48U G60U C85U U92A	-3.06
G48A C70U	-1.3
G36U A111G U133G	-2.38
A29U C62G U106A	-2.35
G47A G120A U126A	-1.73
C8U G52U C56A G77U A121U	1.55
